Measurements: patent US20220348668A1 (UNIVERSITE DE FRANCHE COMTE, published 2022)
Substitutions are numbered along the chain they refer to. Each block holds one molecule with its values, some of them ahead of it.

Key:
[1] = molecular target: CD123 on cells and tissues (CAL-1, GEN 2.2, PDX and primary BPDCN cells, normal pDC, monocytes, CD34+ cells, endothelial cells) (human) (UniProt P26951); experiment: flow cytometry on monocytes; mean [minimum-maximum]
[2] = molecular target: CD123 on cells and tissues (CAL-1, GEN 2.2, PDX and primary BPDCN cells, normal pDC, monocytes, CD34+ cells, endothelial cells) (human) (UniProt P26951); experiment: flow cytometry, MFIR = MFI of CD123 staining / MFI of isotype control mAb; cells: monocytes, n=12; mean [min-max]
[3] = molecular target: CD123 on cells and tissues (CAL-1, GEN 2.2, PDX and primary BPDCN cells, normal pDC, monocytes, CD34+ cells, endothelial cells) (human) (UniProt P26951); experiment: flow cytometry, MFIR = MFI of CD123 staining / MFI of isotype control mAb; cells: CD34 cells, n=7; mean [min-max]
[4] = molecular target: CD123 on cells and tissues (CAL-1, GEN 2.2, PDX and primary BPDCN cells, normal pDC, monocytes, CD34+ cells, endothelial cells) (human) (UniProt P26951); experiment: flow cytometry, MFIR = MFI of CD123 staining / MFI of isotype control mAb; cells: BPDCN, n=3; mean [min-max]
[5] = molecular target: CD123 on cells and tissues (CAL-1, GEN 2.2, PDX and primary BPDCN cells, normal pDC, monocytes, CD34+ cells, endothelial cells) (human) (UniProt P26951); experiment: flow cytometry, MFIR = MFI of CD123 staining / MFI of isotype control mAb; cells: polynuclear cells, n=5; mean [min-max]
[6] = molecular target: CD123 on cells and tissues (CAL-1, GEN 2.2, PDX and primary BPDCN cells, normal pDC, monocytes, CD34+ cells, endothelial cells) (human) (UniProt P26951); experiment: flow cytometry on endothelial HMEC cell line; mean [minimum-maximum]
[7] = molecular target: CD123 on cells and tissues (CAL-1, GEN 2.2, PDX and primary BPDCN cells, normal pDC, monocytes, CD34+ cells, endothelial cells) (human) (UniProt P26951); experiment: flow cytometry on CD34+ cells; mean [minimum-maximum]
[8] = molecular target: CD123 on cells and tissues (CAL-1, GEN 2.2, PDX and primary BPDCN cells, normal pDC, monocytes, CD34+ cells, endothelial cells) (human) (UniProt P26951); experiment: flow cytometry, MFIR = MFI of CD123 staining / MFI of isotype control mAb; cells: normal pDC, n=7; mean [min-max]
[9] = molecular target: CD123 on cells and tissues (CAL-1, GEN 2.2, PDX and primary BPDCN cells, normal pDC, monocytes, CD34+ cells, endothelial cells) (human) (UniProt P26951); experiment: flow cytometry, MFIR = MFI of CD123 staining / MFI of isotype control mAb; cells: lymphocytes, n=12; mean [min-max]
[10] = molecular target: CD123 on cells and tissues (CAL-1, GEN 2.2, PDX and primary BPDCN cells, normal pDC, monocytes, CD34+ cells, endothelial cells) (human) (UniProt P26951); experiment: flow cytometry on BPDCN cells; mean [minimum-maximum]
[11] = molecular target: CD123 on cells and tissues (CAL-1, GEN 2.2, PDX and primary BPDCN cells, normal pDC, monocytes, CD34+ cells, endothelial cells) (human) (UniProt P26951); experiment: flow cytometry on normal pDC; mean [minimum-maximum]
[12] = molecular target: T1, CD123 (protein in solution in the Octet affinity assay) (human, UniProt P26951 19-305, limits assumed); experiment: BLI (Octet), antibody on streptavidin biosensor, CD123 25 nM
T1 construct: also called IL-3Rα; Interleukine-3 Receptor alpha
T1 sequence (looked up): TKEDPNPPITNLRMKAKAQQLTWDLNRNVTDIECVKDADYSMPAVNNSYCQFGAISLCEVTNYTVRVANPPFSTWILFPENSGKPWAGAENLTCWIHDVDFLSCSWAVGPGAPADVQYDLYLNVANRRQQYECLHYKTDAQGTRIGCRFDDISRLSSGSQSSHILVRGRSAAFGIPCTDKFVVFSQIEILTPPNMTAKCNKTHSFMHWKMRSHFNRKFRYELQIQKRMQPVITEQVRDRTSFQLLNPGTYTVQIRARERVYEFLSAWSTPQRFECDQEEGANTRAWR
Experimental: (§1) Affinity of the antibodies of the invention to CD123 is tested on streptavidin biosensors. Herein, to determine KD values seven different concentrations of CD123 were used on immobilized antibodies of the invention. The results were analyzed according to the Octet system available at FortéBio.

[13] = molecular target: T1, CD123 (protein in solution in the Octet …); experiment: BLI (Octet), antibody on streptavidin biosensor, CD123 12.5 nM
Experimental: as §1

[14] = molecular target: T1, CD123 (protein in solution in the Octet …); experiment: BLI (Octet), antibody on streptavidin biosensor, CD123 50 nM
Experimental: as §1

[15] = molecular target: T1, CD123 (protein in solution in the Octet …); experiment: BLI (Octet), antibody on streptavidin biosensor, CD123 6.25 nM
Experimental: as §1

[16] = molecular target: T1, CD123 (protein in solution in the Octet …); experiment: BLI (Octet), antibody on streptavidin biosensor, CD123 in solution
Experimental: as §1

MFI [1]: 1700 | MFIR [2]: 3.3 | MFIR [3]: 8 | MFIR [4]: 42.2 | MFIR [5]: 1.5 | MFI [6]: 1250 | MFI [7]: 874 | MFIR [8]: 210 | MFIR [9]: 2.2 | MFI [10]: 11700 | MFI [11]: 34400
Molecule: 6H6 commercial antiCD123 antibody

Response [12]: 0.42 | Response [13]: 0.23 | Response [14]: 0.697 | Response [15]: 0.12 | Kd [16]: < 0.001 nM | koff [16]: < 1e-07 s⁻¹ | kon [16]: 122000 M⁻¹ s⁻¹
B1: 18B4D5 (antibody, V domains shown)
VH: EVKLQESGPGLVKPSQSLSLTCTVTGYSITSDYTWNWIRQFPGNKLEWMGYISFSGSTSYNPSLKSRLSITRDTSKNQFFLQLNSVTTEDTATYYCARGLDYWGQGTTLTVSS
VL: DIVMTQSPAIMSASLGERVTMTCTASSSISSSYLYWYQQKPGSSPKLWIYSTSNLASGVPARFSGSGSGTSYSLTISSMEAEDAATYYCHQLHRSPWTFGGGTKLEIKR
notes: Mouse hybridoma monoclonal antibody; The tie uses 'at least 85% identity' wording; also called AB1; antiCD123 B4D5

Response [12]: 0.134 | Response [14]: 0.221 | Kd [16]: 8.84 nM | koff [16]: 0.000325 s⁻¹ | kon [16]: 36700 M⁻¹ s⁻¹
B2: 14G12D7 (antibody, V domains shown)
VH: B1 VH with K3Q, I29V, T34A, S53I, F54Y, S57T, L68I, A97T, L100V
VL: DIVLTQSPAIMSASPGEKVTMTCRASSSVRSSYLHWYQQKSGASPKLWIYSTSNLASGVPARFSGSGSGTSYSLTISSVEAEDAATYYCLQFSGYPFTFGGGTKLEIKR
notes: Mouse hybridoma monoclonal antibody; also called AB4

Response [13]: 0.416 | Response [15]: 0.281 | Kd [16]: < 0.001 nM | koff [16]: < 1e-07 s⁻¹ | kon [16]: 326000 M⁻¹ s⁻¹
B3: 11A12C6 (antibody, V domains shown)
VH: QVQLKESGPGLVAPSQSLSITCTVSGFSLTSYDINWIRQTPGKGLEWLGVIWTGGGTNYNSAFMSRLSISRDNSKSQVFLKMNSLQTDDTAIYYCVRGDGYYWYFDVWGAGTTVTVSS
VL: IVMTQSPSSLAVSAGEKVTMSCKSSQSLFSSSARKNYLAWYQQRPGQSPKLLIYWASTRESGVPDRFTGSGSGTDFTLTIGSVQAEDLAVYYCKQSYSLFTFGSGTKLEIKR
notes: Mouse hybridoma monoclonal antibody; also called AB5

Response [12]: 0.34 | Response [13]: 0.265 | Response [14]: 0.507 | Response [15]: 0.149 | Kd [16]: 2.55 nM | koff [16]: 0.000882 s⁻¹ | kon [16]: 346000 M⁻¹ s⁻¹
B4: 17F7B2 (antibody, V domains shown)
VH: EVQLQQSGTVLARPGASVKMSCKASGYSFTSYWMHWVKQRPGQGLEWIGAFYPGKSDTTYNQKFKGKAKLTAVTSASTAYMELSSLTNEDSAVYYCTKGYRYDWFAYWGQGTLVTVSA
VL: DVVMTQTPLSLPVSLGDQASISCRSSQSLVHSNGITYLHWYLQKPGQSPKLLIYKVSNRFSGVPDRFSGSGSGTDFTLKISRVEAEDLGVYFCSQNTHVPFTFGSGTKLEIKR
notes: Mouse hybridoma monoclonal antibody; also called AB2

Response [12]: 0.179 | Response [13]: 0.0895 | Response [14]: 0.316 | Response [15]: 0.0349 | Kd [16]: 9.37 nM | koff [16]: 0.000657 s⁻¹ | kon [16]: 70100 M⁻¹ s⁻¹
B5: 11B6E6 (antibody, V domains shown)
VH: QVKLEESGPGLVAPSQSLSITCTVSGFSLTSYDISWIRQPPGKGLEWLGVIWTGGGTNYNSAFMSRLSISKDNSKSQVFLKMFSLQTDDTAIYYCVRAHGYYFAMDYWGQGTSVTVSS
VL: DIVLTQSPSSLAVSAGEKVTMRCKSSQSLLNSSTRKNYLAWYQQKPGQSPKLLIYWASTRESGVPDRFTGSGSGTDFTLTISSVQAEDLAVYYCKQSYNLFTFGSGTKLEIKR
notes: Mouse hybridoma monoclonal antibody; also called AB3

Response [12]: 0.305 | Response [13]: 0.155 | Response [15]: 0.0878 | Kd [16]: 2.48 nM | koff [16]: 0.000826 s⁻¹ | kon [16]: 332000 M⁻¹ s⁻¹
B6: 15E11B7 (antibody, V domains shown)
VH: EVQLEQSGPELVKPGDSVKISCKASGYSFTGYFMNWVKQSHGKSLEWIGRINPYNDYTFNNQKFKDKATLTVDKSSSTAHMELLSLTSEDSAVYYCGGGVRGAWFAFWGQGTLVTVSE
VL: DIVLTQSTTSLAVSLGQRATISCRASKSVSTSGYNYMHWYQQKPGQPPKLLIYLASNLESGVPARFSGSGSGTDFTLNIHPVEEEDAATYYCQHSADLPYTFGGGTKLEIKR
notes: Mouse hybridoma monoclonal antibody; also called AB6
